Test results as given in patent US20160362495A1 (E R SQUIBB AND SONS L L C, published 2016).

What was measured:
[1] = target: T1, recombinant human PD-L1 fusion protein (human PD-L1 fused to an immunoglobulin Fc region) (human, UniProt Q9NZQ7 19-238); assay: SPR (Biacore), PD-L1 fusion protein amine-coupled to CM5 chip, antibody flowed at 133 nM, 1:1 Langmuir fit
T1 construct: extracellular domain; also called PD-L1-Fc fusion protein; PD-L1-Ig; not shown: immunoglobulin Fc region
Protocol: Anti-PD-L1 antibodies were characterized for affinities and binding kinetics by Biacore analysis (Biacore AB, Uppsala, Sweden). […] The antigen-antibody association kinetics was followed for 1 minute and the dissociation kinetics was followed for 1 minute. The association and dissociation curves were fit to a 1:1 Langmuir binding model using BIAevaluation software (Biacore AB). To minimize the effects of avidity in the estimation of the binding constants, only the initial segment of data corresponding to association and dissociation phases were used for fitting.

[2] = target: T1, recombinant human PD-L1 fusion protein …; assay: flow cytometry blocking assay: antibody titrated against FITC-labeled PD-L1-Fc binding to CHO cells expressing human PD-1
Protocol: Anti-PD-L1 human monoclonal antibodies were tested for the ability to block binding of the ligand PD-L1 to PD-1 expressed on transfected CHO cells by using a cell cytometry assay.
PD-1 expressing CHO cells were suspended in FACS buffer (PBS with 4% fetal calf serum). […] Flow cytometric analyses were performed using a FACScalibur flow cytometer (Becton Dickinson, San Jose, Calif.).

[3] = target: T1, recombinant human PD-L1 fusion protein …; assay: Biacore equilibrium binding, 37 C
[4] = target: T2, human PD-L1 expressed at the cell surface (human, UniProt Q9NZQ7 19-290); assay: flow cytometry titration on CHO cells transfected with human PD-L1, FITC-labeled anti-human IgG detection
T2 construct: whole, on cells; also called cell surface PD-L1; hPD-L1
Text: Chinese hamster ovary (CHO) cell lines that express recombinant human PD-L1 at the cell surface were developed and used to determine the specificity of PD-L1 human monoclonal antibodies by flow cytometry. CHO cells were transfected with expression plasmids containing full length cDNA encoding transmembrane forms of PD-L1. […] The cells were washed and binding was detected with a FITC-labeled anti-human IgG Ab. Flow cytometric analyses were preformed using a FACScan flow cytometry (Becton Dickinson, San Jose, Calif.). The binding was compared to the parent CHO cell line. […] Binding was also tested using varying concentrations of anti-PD-L1 antibody.

[5] = target: T2, human PD-L1 expressed at the cell …; assay: flow cytometry blocking assay: antibody titrated on IFN-gamma-treated ES-2 cells, then PD-1-hFc at 2 ug/mL, detected with biotinylated 26D5 and streptavidin-PE (FL2 GMFI)
Protocol: The blocking was compared to isotype control antibody.
ES-2 cells were induced overnight with 500 IU/mL of hIFN-γ to upregulate hPD-L1 cell surface expression. Induced cells were suspended in FACS buffer. […] Finally, bound 26D5 antibody was detected by addition of streptavidin-PE conjugate at 4° C. for 30 minutes, followed by two washes to remove unbound conjugate. Flow cytometric analysis was performed using a FACScalibur flow cytometer (Becton Dickinson, San lose, Calif.). The results are depicted in FIG. 46.

[6] = target: T1, recombinant human PD-L1 fusion protein …; assay: Biacore equilibrium binding, 25 C
[7] = target: T2, human PD-L1 expressed at the cell …; assay: flow cytometry titration on IFN-gamma-treated ES-2 cells, anti-human kappa detection (sheet title), FL1 GMFI
[8] = target: T1, recombinant human PD-L1 fusion protein …; assay: ELISA on hPD-L1/Fc, HRP goat anti-human IgG (kappa chain-specific) detection
Protocol: Standard ELISA procedures were performed. The anti-PD-L1 human monoclonal antibodies were added at different concentrations. Goat-anti-human IgG (kappa chain-specific) polyclonal antibody conjugated with horseradish peroxidase (HRP) was used as secondary antibody.

[9] = target: T2, human PD-L1 expressed at the cell …; assay: flow cytometry titration on stimulated human CD4+ T cells, FITC anti-human kappa detection, FL1 GMFI
Protocol: (§1) Anti-PD-L1 antibodies were tested by flow cytometry for binding to activated human or cynomolgus monkey T cells expressing PD-L1 on their surface.
(§2) Human or monkey T cells were activated by anti-CD3 antibody to induce PD-L1 expression prior to binding with a human anti-PD-L1 monoclonal antibody. […] An isotype control antibody was used as a negative control. The cells were washed and binding was detected with a FITC-labeled antihuman Ig-kappa light chain Ab. Flow cytometric analyses were performed using a FACScalibur flow cytometer (Becton Dickinson, San Jose, Calif.).

[10] = target: T3, cynomolgus monkey PD-L1 expressed on the surface of activated T cells (cynomolgus monkey, UniProt G7PSE7 19-290); assay: flow cytometry titration on activated cynomolgus PBMC, FITC anti-human kappa detection, FL1 GMFI
T3 construct: also called cynomolgus monkey cell surface PD-L1; stimulated cynomolgus PBMC
Protocol: as §1, §2

T3 sequence (G7PSE7 entry or part of it limits assumed): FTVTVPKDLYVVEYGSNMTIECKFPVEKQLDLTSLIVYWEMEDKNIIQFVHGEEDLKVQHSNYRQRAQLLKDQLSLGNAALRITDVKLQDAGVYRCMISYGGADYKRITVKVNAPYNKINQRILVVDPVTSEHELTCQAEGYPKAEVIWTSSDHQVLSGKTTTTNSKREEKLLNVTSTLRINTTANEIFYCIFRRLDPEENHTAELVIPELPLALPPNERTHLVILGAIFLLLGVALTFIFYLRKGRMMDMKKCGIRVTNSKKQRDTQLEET
T2 sequence (Q9NZQ7 19-290): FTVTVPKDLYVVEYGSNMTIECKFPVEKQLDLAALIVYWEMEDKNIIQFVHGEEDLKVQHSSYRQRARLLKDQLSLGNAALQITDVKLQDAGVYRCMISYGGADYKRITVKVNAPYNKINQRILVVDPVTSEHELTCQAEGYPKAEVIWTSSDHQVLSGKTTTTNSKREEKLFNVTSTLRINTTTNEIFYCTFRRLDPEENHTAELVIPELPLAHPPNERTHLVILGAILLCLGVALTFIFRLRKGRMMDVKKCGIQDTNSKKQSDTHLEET
T1 sequence (Q9NZQ7 19-238): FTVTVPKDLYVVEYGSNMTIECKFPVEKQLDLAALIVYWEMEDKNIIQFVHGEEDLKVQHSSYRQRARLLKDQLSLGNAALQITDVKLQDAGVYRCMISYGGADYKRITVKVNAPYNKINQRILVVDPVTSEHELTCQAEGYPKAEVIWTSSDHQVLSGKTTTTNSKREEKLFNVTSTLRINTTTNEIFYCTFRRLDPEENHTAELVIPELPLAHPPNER

B1: 10A5 human monoclonal antibody (antibody, V domains shown)
VH: QVQLVQSGAEVKKPGASVKVSCKASGYTFTSYDVHWVRQAPGQRLEWMGWLHADTGITKFSQKFQGRVTITRDTSASTAYMELSSLRSEDTAVYYCARERIQLWFDYWGQGTLVTVSS
VL: DIQMTQSPSSLSASVGDRVTITCRASQGISSWLAWYQQKPEKAPKSLIYAASSLQSGVPSRFSGSGSGTDFTLTISSLQPEDFATYYCQQYNSYPYTFGQGTKLEIK
notes: Fully human IgG kappa antibody from a KM-mouse hybridoma; also called HuMAb 10A5
Work on B1 yielded a Kd [1] of 1.45 nM, a koff [1] of 0.000372 s⁻¹ and a kon [1] of 258000 M⁻¹ s⁻¹. For the same binder, the “IC50 (read off the curve)” value [2] was ~3 µg/mL, the Kd [3] was 2.41 nM and the “EC50 (read off the curve)” value [4] was ~0.3 µg/mL. For the same binder, the IC50 [5] was 0.29 nM, the Kd [6] was 0.57 nM and the EC50 [7] was 0.38 nM. For the same binder, the “EC50 (read off the curve)” value [8] was ~0.08 µg/mL.

B2: 10H10 human monoclonal antibody (antibody, V domains shown)
VH: EVQLVESGGGLVQPGRSLRLSCAVSGFTFDDYVVHWVRQAPGKGLEWVSGISGNSGNIGYADSVKGRFTISRDNAKNSLYLQMNSLRAEDTALYYCAVPFDYWGQGTLVTVSS
VL: DIQMTQSPSSLSASVGDRVTITCRASQGISSWLAWYQQKPEKAPKSLIYAASSLQSGVPSRFSGSGSGTDFTLTISSLQPEDFATYYCQQYNSYPYTFGQGTKLEIK
notes: Fully human IgG kappa antibody from a KM-mouse hybridoma
For B2, the Kd [3] was 5.93 nM and the Kd [6] was 5.48 nM.

B3: 3G10 human monoclonal antibody (antibody, V domains shown)
VH: QVQLVQSGAEVKKPGASVKVSCKASGYTFTDYGFSWVRQAPGQGLEWMGWITAYNGNTNYAQKLQGRVTMTTDTSTSTVYMELRSLRSDDTAVYYCARDYFYGMDVWGQGTTVTVSS
VL: EIVLTQSPATLSLSPGERATLSCRASQSVSSYLVWYQQKPGQAPRLLIYDASNRATGIPARFSGSGSGTDFTLTISSLEPEDFAVYYCQQRSNWPRTFGQGTKVEIK
notes: Fully human IgG kappa antibody from a KM-mouse hybridoma; also called HuMAb 3G10
With B3 the Kd [1] was 3.39 nM, the “EC50 (read off the curve)” value [4] was ~0.3 µg/mL and the IC50 [5] was 0.47 nM. For the same binder, the EC50 [9] was 0.23 nM, the EC50 [7] was 0.42 nM and the “EC50 (read off the curve)” value [8] was ~0.1 µg/mL. It also gave an EC50 [10] of 0.38 nM.

B4: 1B12 human monoclonal antibody (antibody, V domains shown)
VH: QVQLVQSGAEVKKPGSSVKVSCKTSGDTFSSYAISWVRQAPGQGLEWMGGIIPIFGRAHYAQKFQGRVTITADESTSTAYMELSSLRSEDTAVYFCARKFHFVSGSPFGMDVWGQGTTVTVSS
VL: not shown
notes: as for B2
For B4, the Kd [3] was 1.38 nM, the IC50 [5] was 0.21 nM and the EC50 [9] was 0.06 nM. The EC50 [7] was 0.23 nM and the EC50 [10] was 0.15 nM.

B5: 12A4 human monoclonal antibody (antibody, V domains shown)
VH: QVQLVQSGAEVKKPGSSVKVSCKTSGDTFSTYAISWVRQAPGQGLEWMGGIIPIFGKAHYAQKFQGRVTITADESTSTAYMELSSLRSEDTAVYFCARKFHFVSGSPFGMDVWGQGTTVTVSS
VL: not shown
notes: Fully human IgG kappa antibody from a KM-mouse hybridoma; also called HuMAb 12A4
B5 gave an EC50 [10] of 0.1 nM.

B6: 7H1 human monoclonal antibody (antibody, V domains shown)
VH: QVQLVQSGAEVKKPGSSVKVSCKTSGGTFSSYAISWVRQAPGQGLEWMGGIIPIFGKAHYAQKFQGRVTITADESTTTAYMELSSLRSEDTAVYYCARKYDYVSGSPFGMDVWGQGTTVTVSS
VL: not shown
notes: as for B2
Work on B6 yielded a Kd [3] of 2.15 nM.
